Data taken from IntAct's records for PubMed 26972053.

B1: Cytosolic arginine sensor for mTORC1 subunit 1 (Homo sapiens), Q8WTX7 (parent)
chain: MELHILEHRVRVLSVARPGLWLYTHPLIKLLFLPRRSRCKFFSLTETPEDYTLMVDEEGFKELPPSEFLQVAEATWLVLNVSSHSGAAVQAAGVTKIARSVIAPLAEHHVSVLMLSTYQTDFILVREQDLSVVIHTLAQEFDIYREVGGEPVPVTRDDSSNGFPRTQHGPSPTVHPIQSPQNRFCVLTLDPETLPAIATTLIDVLFYSHSTPKEAASSSPEPSSITFFAFSLIEGYISIVMDAETQKKFPSDLLLTSSSGELWRMVRIGGQPLGFDECGIVAQIAGPLAAADISAYYISTFNFDHALVPEDGIGSVIEVLQRRQEGLAS
partner: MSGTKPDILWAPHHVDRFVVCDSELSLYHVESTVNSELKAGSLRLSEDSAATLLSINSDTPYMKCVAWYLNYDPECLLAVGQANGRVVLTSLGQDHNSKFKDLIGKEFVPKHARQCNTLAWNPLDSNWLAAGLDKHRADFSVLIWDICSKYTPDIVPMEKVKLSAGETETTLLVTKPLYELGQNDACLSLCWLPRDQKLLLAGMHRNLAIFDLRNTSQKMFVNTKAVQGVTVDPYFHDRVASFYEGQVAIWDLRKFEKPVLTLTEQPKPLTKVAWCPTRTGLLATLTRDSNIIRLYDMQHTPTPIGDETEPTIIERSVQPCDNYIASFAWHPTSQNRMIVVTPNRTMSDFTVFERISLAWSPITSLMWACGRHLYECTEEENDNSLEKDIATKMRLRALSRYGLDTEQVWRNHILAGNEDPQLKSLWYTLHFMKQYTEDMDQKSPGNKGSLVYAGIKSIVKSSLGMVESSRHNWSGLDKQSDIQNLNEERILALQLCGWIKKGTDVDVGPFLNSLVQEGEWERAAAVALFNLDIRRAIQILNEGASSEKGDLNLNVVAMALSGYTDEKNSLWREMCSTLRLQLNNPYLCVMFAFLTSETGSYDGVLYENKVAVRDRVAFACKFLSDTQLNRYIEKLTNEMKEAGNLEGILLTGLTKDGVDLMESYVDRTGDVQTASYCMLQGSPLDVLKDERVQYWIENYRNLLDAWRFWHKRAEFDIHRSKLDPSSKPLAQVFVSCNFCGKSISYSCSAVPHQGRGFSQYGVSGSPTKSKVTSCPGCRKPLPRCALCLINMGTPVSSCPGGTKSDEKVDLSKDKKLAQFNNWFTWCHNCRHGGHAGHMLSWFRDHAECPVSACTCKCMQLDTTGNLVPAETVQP

Variants of: B1
Conditions: with mios_human MIOS

Row | effect of a mutation on the interaction | Variant
1 | disrupting interaction strength | I280A
